The record followed here is paper PMC4490510, “Cloning, Expression and Characterization of a Thermostable Esterase HydS14 from Actinomadura sp. Strain S14 in Pichia pastoris” (International Journal of Molecular Sciences, 2015).

Data set [1] relates to T1, CC(=O)Oc1ccc([N+](=O)[O-])cc1.
T1 construct: ORF 258 aa, 26,604 Da, no signal peptide; secreted from Pichia pastoris X33 via pPICZalphaA with 6xHis tag (predicted 29,117 Da, ~30 kDa SDS-PAGE), Ni-Sepharose purified, not N-glycosylated
In words: purified protein. It counts as biochemical, Actinomadura sp. S14. The settings on record: 50 mM Tris-HCl pH 8.0, 50 °C, 0.4% Triton X-100, 0.1% gum arabic.

In data set [2] the test system is T2, CCCC(=O)Oc1ccc([N+](=O)[O-])cc1.
T2 construct: ORF 258 aa, 26,604 Da, no signal peptide; secreted from Pichia pastoris X33 via pPICZalphaA with 6xHis tag (predicted 29,117 Da, ~30 kDa SDS-PAGE), Ni-Sepharose purified, not N-glycosylated
Description: purified protein. It counts as biochemical, Actinomadura sp. S14. The settings on record: 50 mM Tris-HCl pH 8.0, 50 °C, 0.4% Triton X-100, 0.1% gum arabic.

As usually defined, the Km is the substrate concentration at which the rate is half of its maximum. As a reminder, the Vmax is the top rate of the reaction or transport when substrate is in excess. The term kcat denotes the number of substrate molecules converted per active site and unit of time at saturation. By kcat/Km is commonly meant the second-order rate constant that governs catalysis at low substrate concentration. As to HydS14 (Actinomadura sp. S14), in data set [1], the Km turned out to be 360 ± 10 µM, the Vmax worked out at 35.3 µmol/min/mg, the kcat is 2.37 ± 0.06 s⁻¹ and the kcat/Km was found to be 6590 ± 40 M⁻¹ s⁻¹. In data set [2], the Km is 210 ± 20 µM, the Vmax was 37.1 µmol/min/mg, the kcat turned out to be 2.47 ± 0.07 s⁻¹ and the kcat/Km turned out to be 11700 ± 780 M⁻¹ s⁻¹.
